According to US20210206855A1 (ADAGENE, published 2021):
Positions count from the first letter of the chain named.

Legend:
human CD80 (recombinant) = target: T1, human CD80 (recombinant) (human, UniProt P33681 35-242, limits assumed, biotinylated where used in solution); assay: flow cytometry on yeast displaying CTLA4; Normalized FACS Bound, human WT = 1
T1 construct: also called biotinylated CD80
T1 sequence (looked up): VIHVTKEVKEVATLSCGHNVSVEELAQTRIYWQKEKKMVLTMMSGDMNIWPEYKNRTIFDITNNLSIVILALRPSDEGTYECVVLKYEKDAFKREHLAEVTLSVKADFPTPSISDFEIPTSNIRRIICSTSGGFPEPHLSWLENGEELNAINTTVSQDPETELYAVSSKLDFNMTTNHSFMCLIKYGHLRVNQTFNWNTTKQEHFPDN

[1] = target: T2, human CD86 (epitope mapping reagent) (human, UniProt P42081 24-247, limits assumed); assay: as above
T2 sequence (looked up): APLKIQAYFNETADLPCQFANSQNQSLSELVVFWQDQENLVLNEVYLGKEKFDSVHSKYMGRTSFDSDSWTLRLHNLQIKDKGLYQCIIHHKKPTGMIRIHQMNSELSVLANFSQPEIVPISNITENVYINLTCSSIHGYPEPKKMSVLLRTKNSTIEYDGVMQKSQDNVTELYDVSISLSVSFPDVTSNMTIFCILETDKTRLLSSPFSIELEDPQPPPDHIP

mouse CD86 = target: T3, mouse CD86 (mouse, UniProt P42082 24-244, limits assumed); assay: as above
T3 sequence (looked up): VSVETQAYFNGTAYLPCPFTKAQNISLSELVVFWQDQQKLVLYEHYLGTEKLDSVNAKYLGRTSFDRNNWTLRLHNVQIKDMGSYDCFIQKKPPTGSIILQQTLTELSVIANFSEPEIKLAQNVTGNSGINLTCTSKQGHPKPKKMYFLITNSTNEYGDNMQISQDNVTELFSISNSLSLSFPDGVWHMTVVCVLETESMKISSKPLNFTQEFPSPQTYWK

[2] = target: T4, recombinant human CTLA4-Fc (Sino Biological, 11159-H03H) (human, UniProt P16410 37-162); assay: ELISA, coated human CTLA4-Fc
T4 construct: bought; whole entry named; Biotinylated in the yeast display assays; also called human CTLA4 fused with human FC fragment; biotinylated CTLA4-Fc; not shown: human Fc fragment
T4 sequence (looked up): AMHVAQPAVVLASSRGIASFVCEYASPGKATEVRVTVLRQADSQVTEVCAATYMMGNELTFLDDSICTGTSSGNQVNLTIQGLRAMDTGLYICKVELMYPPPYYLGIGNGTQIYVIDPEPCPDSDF
Description: (§1) The ability of certain IgG antibodies to bind to soluble human (FIG. 1A, Table 5A) or canine (FIG. 1B, Table 5B) CTLA4 was next tested. 1 μg/mL human CTLA4 fused with human FC fragment, or canine CTLA4 fused with His tag, were prepared and used to coat an ELISA plate at 2-8° C. overnight. After blocking, 100 μL serial diluted IgG antibodies were added and incubated at 37° C. for 1 hour. Plates were washed for four times and then incubated with HRP-anti human IgG (Fab specific) (1:6000 dilution) at 37° C. for 1 hour. Plates were washed again four times and incubated with TMB substrate for 15 minutes at room temperature. […] The data was analyzed by Graphpad Prism 6 with nonlinear fitting.

[3] = target: T5, canine CTLA4 fused with His tag (canine, UniProt Q9XSI1 36-162, limits assumed); assay: ELISA, coated canine CTLA4-His
T5 construct: soluble protein; also called dog CTLA4; not shown: His tag
T5 sequence (looked up): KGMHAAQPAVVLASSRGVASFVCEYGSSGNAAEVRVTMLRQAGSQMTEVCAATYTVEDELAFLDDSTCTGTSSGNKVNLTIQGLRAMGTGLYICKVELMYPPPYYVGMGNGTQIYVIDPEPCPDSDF
Description: as §1

[4] = target: T6, recombinant human CTLA4 fused with human Fc and His tag (human, UniProt P16410 37-162, limits assumed, biotinylated where used in solution); assay: competition ELISA: plate-bound human CTLA4-Fc-His, biotinylated human CD80 as the blocked ligand, HRP-neutravidin
T6 construct: also called biotinylated human CTLA4 fused with human FC and His tag; recombinant human CTLA4 proteins; not shown: human Fc and His tag
T6 sequence (looked up): T4 sequence (looked up)
Description: Plates were blocked with PBS supplemented with 2% (w/v) skim milk at 37° C. for 1 hour. […] Plates were washed four times, and 100 μL HRP-neutravidin (1:1000) was added to each well and incubated at 37° C. for 1 hour. Plates were washed as previously described, and 50 μL TMB substrate solution was added and incubated at room temperature for 5 minutes before the reaction was stopped by 50 μL sulfate acid (2M).

[5] = target: T7, cynomolgus monkey CTLA4 antigen fused with human FC fragment (cynomolgus monkey, UniProt G7PL88 36-161, fused to a human Fc fragment that is not in the letters); assay: ELISA, captured Fab
T7 sequence: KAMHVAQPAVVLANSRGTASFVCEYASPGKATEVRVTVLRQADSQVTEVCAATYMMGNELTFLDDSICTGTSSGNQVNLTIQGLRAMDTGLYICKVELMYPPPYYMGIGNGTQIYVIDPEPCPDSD

[6] = target: T4, recombinant human CTLA4-Fc (Sino …); assay: ELISA, coated human CTLA4-Fc, batch 2
Description: (§2) Plates were blocked with PBS supplemented with 3% non-fat milk at 37° C. for 1 hour. After washing, 100 μL of 3-fold serial dilutions of antibodies were added to each well. After incubation at 37° C. for 1 hour, plates were washed four times, and […] conjugated anti-human IgG (Fab specific) (1:6000 dilution) was added to each well. Plates were incubated at 37° C. for 1 hour, washed four times, and then 50 μL TMB substrate solution was added to each well, and the plate was incubated at room temperature. […] The EC₅₀ was evaluated by fitting the ELISA data using the asymmetrical sigmoidal (five-parameter logistic equation) model of GraphPad Prism 6 software.

[7] = target: T4, recombinant human CTLA4-Fc (Sino …); assay: ELISA, coated human CTLA4-Fc, batch 1
Description: as §2

[8] = target: T4, recombinant human CTLA4-Fc (Sino …); assay: ELISA, coated human CTLA4-Fc (as Example 8)
Description: as §2

[9] = target: T4, recombinant human CTLA4-Fc (Sino …); assay: ELISA, coated human CTLA4-Fc (as Example 8); remark: listed apart in the source
Description: as §2

B1: human CTLA4 mutant YLGIG105FVGMG displayed on yeast (receptor)
chain: KAMHVAQPAVVLASSRGIASFVCEYASPGKATEVRVTVLRQADSQVTEVCAATYMMGNELTFLDDSICTGTSSGNQVNLTIQGLRAMDTGLYICKVELMYPPPYFVGMGNGTQIYVIDPE
notes: also called G strand changed to mouse
B1: binds (human CD80 (recombinant)); binds [1]; binds (mouse CD86).

B2: TY21687 (antibody, V domains shown)
VH: EVQLVESGGGLVQPGGSLRLSCAASGFTFSGYAIHWVRQAPGKGLEWIGIISPSGGGTKYAQKFQGRVTISRDNSKNTLYLQLNSLRAEDTAVYYCARHPFAYWGQGTLVTVSS
VL: DIQLTQSPSSLSASVGDRVTITCRASQSVDFYGISFLDWYQQKPGKAPKLLIYDASNRATGIPSRFSGSGSGTDFTLTISSLQPEDFATYYCQQYVSSPPEYTFGQGTKVEIK
In the case of B2, the LogEC50 [2] is reported as -9.49 log M, the LogEC50 [3] is reported as -9.13 log M and the “IC50 (read off the curve)” value [4] is reported as ~40 nM.

B3: TY21585 (antibody, V domains shown)
VH: EVQLVESGGGLVQPGGSLRLSCAASGFTFSDYAIHWVRQAPGKGLEWIGIISPSSGSTNYAQKFQGRVTISRDNSKNTLYLQLNSLRAEDTAVYYCARDIHSGSSGYYYGFDVWGQGTLVTVSS
VL: B2 VL with Q27E, Y32F, D38A, Q94H, V96T, E101V
B3 was tested, and the LogEC50 [2] was -9.26 log M, the LogEC50 [3] was -8.22 log M and the “IC50 (read off the curve)” value [4] was ~20 nM.

B4: B15722 (Fab, V domains shown)
VH: EVQLVESGGGLVQPGGSLRLSCAASGFTFSDYGIHWVRQAPGKGLEWIGEIYHSGSTYYSPSLKSRVTISRDNSKNTLYLQLNSLRAEDTAVYYCARDVAPGSSGYYDGFDFWGQGTLVTVSS
VL: DIQLTQSPSSLSASVGDRVTITCRASQGIGSSLAWYQQKPGKAPKLLIYDASNRATGIPSRFSGSGSGTDFTLTISSLQPEDFATYYCQQYDQWPPWTFGQGTKVEIKR
notes: Fab hit from E. coli
B4: binds [5].

B5: B15740 (Fab, V domains shown)
VH: EVQLVESGGGLVQPGGSLRLSCAASGFTFSDYWIHWVRQAPGKGLEWIGWISPSGGGTKYAQKFQGRVTISRDNSKNTLYLQLNSLRAEDTAVYYCARGAYEFDYWGQGTLVTVSS
VL: DIQLTQSPSSLSASVGDRVTITCRASQSVSSRFLAWYQQKPGKAPKLLIYDASNRATGIPSRFSGSGSGTDFTLTISSLQPEDFATYYCQQSYPTPLTFGQGTKVEIKR
notes: Fab hit from E. coli
B5: binds [5].

B6: TY21591 (antibody, V domains shown)
VH: EVQLVESGGGLVQPGGSLRLSCAASGFSLSTGGVAVSWIRQAPGKGLEWIGEIYHSGSTYYSPSLKSRVTISRDNSKNTLYLQLNSLRAEDTAVYYCARRIATATYFDYWGQGTLVTVSS
VL: DIQLTQSPSSLSASVGDRVTITCRASQTVFSRYLAWYQQKPGKAPKLLIYDASNRATGIPSRFSGSGSGTDFTLTISSLQPEDFATYYCQQSYYWPPWTFGQGTKVEIK
B6 showed a LogEC50 [2] of -9.08 log M and a LogEC50 [3] of -9.15 log M.

B7: TY22566 (antibody, IgG1, V domains shown)
VH: EVQLVESGGGLVQPGGSLRLSCAASGYSISSGYHWSWIRQAPGKGLEWLARIDWDDDKYYSTSLKSRLTISRDNSKNTLYLQLNSLRAEDTAVYYCARSYVYFDYWGQGTLVTVSS
VL: EVGSYPNPASDCVPYYYACAYSGRSAGGGGSPLGLAGSGGSDIQLTQSPSSLSASVGDRVTITCRASQSVRGRFLAWYQQKPGKAPKLLIYDASNRATGIPSRFSGSGSGTDFTLTISSLQPEDFATYYCQQSSSWPPTFGQGTKVEIKR
B7 was tested, and the EC50 [6] was 163 nM and the LogEC50 [6] was -6.79 log M.

B8: TY22401 (antibody, V domains shown)
VH: B7 VH
VL: EVGSYNFVADSCPDHPYPCSASGRSAGGGGSPLGLAGSGGSDIQLTQSPSSLSASVGDRVTITCRASQSVRGRFLAWYQQKPGKAPKLLIYDASNRATGIPSRFSGSGSGTDFTLTISSLQPEDFATYYCQQSSSWPPTFGQGTKVEIKR
notes: peptide fused to the N-terminus of the light chain; also called masking peptide B13189
Binder B8 has an EC50 [7] of 23.8 nM, a LogEC50 [7] of -7.62 log M and an EC50 [6] of 15.9 nM. It also gave a LogEC50 [6] of -7.8 log M.

B9: TY22402 (antibody, IgG1, V domains shown)
VH: B7 VH
VL: EVGSYIVHHSDCDAFYPYCDSSGRSAGGGGSPLGLAGSGGSDIQLTQSPSSLSASVGDRVTITCRASQSVRGRFLAWYQQKPGKAPKLLIYDASNRATGIPSRFSGSGSGTDFTLTISSLQPEDFATYYCQQSSSWPPTFGQGTKVEIKR
notes: also called masking peptide B13180
With B9 the EC50 [7] was 478 nM, the LogEC50 [7] was -6.32 log M and the EC50 [6] was 125 nM. It also gave a LogEC50 [6] of -6.9 log M.

B10: TY22402 (peptide as listed in Table 26) (antibody, V domains shown)
VH: B7 VH
VL: B9 VL with S31T
notes: kept apart from m66
For B10, the EC50 [8] was 54 nM and the EC50 [9] was 116 nM.

B11: TY22565 (antibody, IgG1, V domains shown)
VH: B7 VH
VL: B7 VL with N7Q, A9S
With B11 the EC50 [6] was 210 nM and the LogEC50 [6] was -6.68 log M.

B12: TY22563 (antibody, IgG1, V domains shown)
VH: B7 VH
VL: B9 VL with I6Y, V7S, H8A, H9Y, S10P, D11A, A14S, F15H, D20Q
B12 gave an EC50 [6] of 47.7 nM and a LogEC50 [6] of -7.32 log M.

B13: TY22564 (antibody, IgG1, V domains shown)
VH: B7 VH
VL: B9 VL with I6Y, V7S, H8A, H9Y, S10P, D11A, A14S, F15H, D20N, S22A
In the case of B13, the EC50 [6] is reported as 39 nM and the LogEC50 [6] is reported as -7.41 log M.
